The values that follow come from PMC11731779, “Transferrin Disassociates TCR from CD3 Signaling Apparatus to Promote Metastasis” (Research, 2025).

The target of assay [1] is T1, transferrin (UniProt P02787 20-698).
T1 construct: transferrin (serotransferrin); One molecule for the transferrin immobilised for SPR, added to cells (co-IP with intervention, FRET) and co-precipitated from human PBMC / T cells; Methods are in the supplement; also called Tf
The assay is described as follows: not stated; DK8 binding to transferrin, 'binding response value' and KD (Fig. S9C and E); method not given.

Assay [2] deals with T1, transferrin. The assay is described as follows: SPR; Biacore T200; transferrin amine-coupled to a CM5 chip at ~6,000 resonance units; analytes in PBST (0.02% Tween 20) at 20 μl/min; TCRα, TCRβ and human serum albumin at 1,000 nM; TCRα and TRAC at 125, 250, 500 and 1,000 nM; kinetic and steady-state fits. To be noted: both partners purified. For orientation: Surface plasmon resonance follows binding to a sensor surface in real time, without labels.

T1 sequence (P02787 20-698): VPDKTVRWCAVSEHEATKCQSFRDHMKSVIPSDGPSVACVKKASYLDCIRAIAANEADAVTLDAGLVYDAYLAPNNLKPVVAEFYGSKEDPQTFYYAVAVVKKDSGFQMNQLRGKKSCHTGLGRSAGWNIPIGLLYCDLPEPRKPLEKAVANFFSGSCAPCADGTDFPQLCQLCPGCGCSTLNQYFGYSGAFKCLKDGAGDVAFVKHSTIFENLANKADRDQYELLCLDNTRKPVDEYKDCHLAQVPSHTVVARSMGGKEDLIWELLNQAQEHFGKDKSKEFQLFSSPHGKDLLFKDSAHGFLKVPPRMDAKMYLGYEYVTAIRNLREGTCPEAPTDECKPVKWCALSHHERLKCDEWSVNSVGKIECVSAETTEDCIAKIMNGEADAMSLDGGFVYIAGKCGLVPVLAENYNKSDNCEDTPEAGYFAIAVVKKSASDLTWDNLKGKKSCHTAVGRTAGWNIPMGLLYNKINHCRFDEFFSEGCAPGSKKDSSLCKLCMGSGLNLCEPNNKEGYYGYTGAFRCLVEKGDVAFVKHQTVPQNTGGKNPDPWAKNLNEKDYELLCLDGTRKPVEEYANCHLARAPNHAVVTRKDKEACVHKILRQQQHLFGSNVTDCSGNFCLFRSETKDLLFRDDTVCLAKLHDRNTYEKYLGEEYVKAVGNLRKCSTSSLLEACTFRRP

B1: DK8 (peptide)
peptide: DMRSMDFK
notes: amino acids 50 to 57 of TRAC (UniProt P01848); also called interfering peptide DK8; designed peptide (DK8)
In general, Kd refers to the equilibrium constant for the complex coming apart. On to B1, for which, in the assay with transferrin [1], the Kd stood at 166 nM.

B2: T cell receptor α constant (TRAC) (domain or fragment, human, UniProt P01848 1-115, looked up)
chain: IQNPDPAVYQLRDSKSSDKSVCLFTDFDSQTNVSQSKDSDVYITDKTVLDMRSMDFKSNSAVAWSNKSDFACANAFNNSIIPEDTFFPSPESSCDVKLVEKSFETDTNLNFQNLS
notes: T cell receptor alpha chain constant region (TRAC), human, UniProt P01848; TRAC protein used as analyte in SPR; construct and host may stand in the Supplementary Methods; also called constant domain (CD) of TCRα; Cα
In the case of B2, in the assay with transferrin [2], binding was characterised by a dissociation constant (Kd) of 10.9 nM. That is a double-digit nanomolar value.
